The results in this text go back to PMC5727384, “A pH-gated conformational switch regulates the phosphatase activity of bifunctional HisKA-family histidine kinases” (Nature Communications, 2017).

B1: Cytoplasmic portion of HK853 (HK853^cp), wild type, residues 232–489 (domain or fragment, Thermotoga maritima, UniProt Q9WZV7 232-489, looked up)
chain: VENVTESKELERLKRIDRMKTEFIANISHELRTPLTAIKAYAETIYNSLGELDLSTLKEFLEVIIDQSNHLENLLNELLDFSRLERKSLQINREKVDLCDLVESAVNAIKEFASSHNVNVLFESNVPCPVEAYIDPTRIRQVLLNLLNNGVKYSKKDAPDKYVKVILDEKDGGVLIIVEDNGIGIPDHAKDRIFEQFYRVDSSLTYEVPGTGLGLAITKEIVELHGGRIWVESEVGKGSRFFVWIPKDRAGEDNRQDN
notes: Histidine kinase HK853, Thermotoga maritima, cytoplasmic portion (DHp and CA domains), residues 232–489; Crystallised with AMPPNP, which was captured as ADP; also called wild-type HK853^cp; source: E. coli BL21(DE3) Gold, purified (ammonium sulfate precipitation, anion-exchange, size-exclusion)
B2: BeF3−-RR468 (BeF3−-conjugated form of the response regulator RR468 from Thermotoga maritima) (natural protein)
chain: MSKKVLLVDDSAVLRKIVSFNLKKEGYEVIEAENGQIALEKLSEFTPDLIVLDIMMPVMDGFTVLKKLQEKEEWKRIPVIVLTAKGGEEDESLALSLGARKVMRKPFSPSQFIEEVKHLLNE
modifications: BeF3− on D53 (beryllium atom forming a covalent bond with the phosphate-accepting residue D53; phosphoryl analog)
notes: Response regulator RR468, cognate response regulator of HK853, Thermotoga maritima; Generated by adding 5 mM BeCl2 and 50 mM NaF to RR468 (NMR) or 5 mM BeCl2 and 30 mM NaF (crystallisation); Mg2+ in the active site; source: E. coli BL21(DE3) Gold, purified (incubation at 60 °C, anion-exchange, size-exclusion); BeF3− added as BeCl2 and NaF
B3: T264A mutant of the cytoplasmic portion of HK853 (T264A HK853^cp) (domain or fragment, Thermotoga maritima, UniProt Q9WZV7 232-489, looked up)
chain: VENVTESKELERLKRIDRMKTEFIANISHELRAPLTAIKAYAETIYNSLGELDLSTLKEFLEVIIDQSNHLENLLNELLDFSRLERKSLQINREKVDLCDLVESAVNAIKEFASSHNVNVLFESNVPCPVEAYIDPTRIRQVLLNLLNNGVKYSKKDAPDKYVKVILDEKDGGVLIIVEDNGIGIPDHAKDRIFEQFYRVDSSLTYEVPGTGLGLAITKEIVELHGGRIWVESEVGKGSRFFVWIPKDRAGEDNRQDN
notes: Histidine kinase HK853, Thermotoga maritima, cytoplasmic portion (residues 232–489 as stated for HK853^cp), with T264A; also called HK853^cp T264A mutant

Data set [1] concerns the target T1, HK853^cp-BeF3 ^−-RR468 complex (nucleotide site of HK853^cp) (Thermotoga maritima, UniProt Q9WZV7).
T1 construct: gene TM_0853; HK853 cytoplasmic portion (DHp and CA domains, residues 232-489), with RR468; heterotetramer of two HK853cp and two RR468; expressed in E. coli; with Response regulator
T1 sequence (Q9WZV7 232-489): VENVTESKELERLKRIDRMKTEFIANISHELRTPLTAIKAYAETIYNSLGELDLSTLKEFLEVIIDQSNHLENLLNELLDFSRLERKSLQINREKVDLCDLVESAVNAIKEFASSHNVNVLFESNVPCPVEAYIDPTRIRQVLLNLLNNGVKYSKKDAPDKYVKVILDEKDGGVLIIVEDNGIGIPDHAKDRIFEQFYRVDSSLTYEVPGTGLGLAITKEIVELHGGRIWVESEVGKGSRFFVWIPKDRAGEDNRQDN
T1 sequence (Q9WYT9 1-122 partner): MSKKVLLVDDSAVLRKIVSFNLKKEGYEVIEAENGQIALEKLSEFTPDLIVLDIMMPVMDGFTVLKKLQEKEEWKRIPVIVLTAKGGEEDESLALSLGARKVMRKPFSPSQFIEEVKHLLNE
Kind of data set: X-ray crystal structure, […] A. The class given is binding. To be noted: pH 5.0; Mg2+; crystallised with 4 mM AMPPNP, hydrolysed to ADP; ATP site of HK853 CA domain.

Data set [2] has as its target T2, HK853^DHp-BeF3 ^−-RR468 complex (Thermotoga maritima, UniProt Q9WYT9).
T2 construct: gene TM_0468
To be noted: pH 7.0; Mg2+; 298 K; covalent to D53 of RR468; 10-fold excess of HK853 DHp.

For data set [3], the target named is T3, HK853^cp-BeF3 ^−-RR468 complex (active site of RR468) (Thermotoga maritima, UniProt Q9WYT9).
T3 construct: gene TM_0468
To be noted: pH 5.0; Mg2+; covalent to D53 of RR468.

A further data set concerns the target T4, RR468 (Thermotoga maritima, UniProt Q9WYT9).
T4 construct: gene TM_0468
To be noted: pH 7.0; Mg2+; 298 K; covalent Be bond to D53; formed from 5 mM BeCl2 and 50 mM NaF.

Data set [4] deals with the molecule itself. Nature of the data set: crystal structure; HK853^cp (wild type or T264A) with RR468, BeF3− and AMPPNP (captured as ADP), crystallised at pH 5.0 (citric acid, ammonium sulfate).
The target of data set [5] is B1. The description is as above. As to conditions: both partners purified.
In data set [6] the target is B3. The data set is described as above. As to conditions: both partners purified.
Data set [7] deals with B2. Nature of the data set: NMR titration; 19F NMR of BeF3−-RR468, HK853^DHp or mutants added at a concentration 10-fold higher than BeF3−-RR468; pH 7.0; 20 mM HEPES, 50 mM KCl, 10 mM MgCl2; 298 K. As to conditions: both partners purified.

`Nc1ncnc2c1ncn2[C@@H]1O[C@H](COP(=O)(O)OP(=O)(O)O)[C@@H](O)[C@H]1O` [ADP]: the “X-ray crystal structure, 2.68 A” value in data set [1] is listed as “The AMPPNP is captured in the hydrolyzed form of ADP”.
As to `[F][Be-]([F])[F]` [BeF3 ^−], the “19F NMR” value in data set [2] is “indicating the formation of the HK853^DHp-BeF3 ^−-RR468 complex”; at RR468, “we were able to detect three broad fluorine signals from the protein-bound BeF3 ^−”. In addition, the “X-ray crystal structure, 2.68 A” value in data set [3] is “reveals a heterotetrameric complex consisting of two HK853^cp and two BeF3 ^−-RR468”.
Regarding B1, in data set [4], the binding result is given as “binds”.
In the case of B2, the binding result in data set [5] and in data set [6] was “binds” in each case.
As to B3, in data set [4], the binding result is reported as “binds”.

B4: DHp domain of HK853 (HK853^DHp), wild type, residues 250–315 (domain or fragment, Thermotoga maritima, UniProt Q9WZV7 250-315, looked up)
chain: MKTEFIANISHELRTPLTAIKAYAETIYNSLGELDLSTLKEFLEVIIDQSNHLENLLNELLDFSRL
notes: Histidine kinase HK853, Thermotoga maritima, dimerization and histidine-containing phosphotransfer (DHp) domain, residues 250–315; also called wild-type HK853^DHp; not shown: His6, N-terminal, cleaved; MBP, N-terminal, cleaved
Take B4: in data set [7], the binding result is “binds”.

B5: H260A mutant of the DHp domain of HK853 (H260A HK853^DHp), residues 250–315 (domain or fragment, Thermotoga maritima, UniProt Q9WZV7 250-315, looked up)
chain: MKTEFIANISAELRTPLTAIKAYAETIYNSLGELDLSTLKEFLEVIIDQSNHLENLLNELLDFSRL
notes: Histidine kinase HK853, Thermotoga maritima, DHp domain, residues 250–315, with H260A; not shown: His6, N-terminal, cleaved; MBP, N-terminal, cleaved
As for B5, the binding result in data set [7] is reported as “binds”.

B6: T264A mutant of the DHp domain of HK853 (T264A HK853^DHp), residues 250–315 (domain or fragment, Thermotoga maritima, UniProt Q9WZV7 250-315, looked up)
chain: MKTEFIANISHELRAPLTAIKAYAETIYNSLGELDLSTLKEFLEVIIDQSNHLENLLNELLDFSRL
notes: Histidine kinase HK853, Thermotoga maritima, DHp domain, residues 250–315, with T264A; also called T264A HK853 mutant; not shown: His6, N-terminal, cleaved; MBP, N-terminal, cleaved
Regarding B6, the binding result in data set [7] was “binds”.
